Results: patent US20190032032A1

Target: HSP90 (heat shock protein 90) (human (endogenous in the human Huh7.5-derived JFH-1 cell line)) (UniProt P07900)
Assay: cell-based or functional assay

“PEP1 peptide (hTERT-derived 16mer peptide, 611-…-626)” showed a mean 50% inhibitory concentration (IC50) of HIV-1 viral particle production in MT-4 cells, p24 ELISA of 850 nM.
